Values quoted from earlier work in paper PMC2874015.

How the values were obtained:
[1] = target: c-Jun leucine zipper (Homo sapiens) (UniProt P05412)
[2] = target: GCN4 leucine zipper (Saccharomyces cerevisiae) (UniProt P03069)

Sequence of c-Jun leucine zipper (P05412 277-311): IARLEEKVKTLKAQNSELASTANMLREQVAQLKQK
Sequence of GCN4 leucine zipper (P03069 250-277): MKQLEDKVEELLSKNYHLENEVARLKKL

Row | Substance | Kd [1] [µM] | Kd [2] [µM]
1 | c-Jun leucine zipper (from UniProt P05412) | 448 | –
2 | GCN4 leucine zipper (from UniProt P03069) | – | 0.008
